Measurements from patent US20240067747A1 (SHANGHAI HUAOTA BIOPHARMACEUTICAL, published 2024).
Residue numbers refer to the chain shown, from its start. Like-named read-outs stand apart in the source and are kept apart here. Values belong to the binder of their own block, whether it stands above or below them.

What was measured:
[1] = target: T1, human CD73 on the cell surface of CHOK1-huCD73-3F4 cells (Huabo Biopharm) (human, UniProt P21589 27-549); test: cell-based or functional assay
T1 sequence (looked up): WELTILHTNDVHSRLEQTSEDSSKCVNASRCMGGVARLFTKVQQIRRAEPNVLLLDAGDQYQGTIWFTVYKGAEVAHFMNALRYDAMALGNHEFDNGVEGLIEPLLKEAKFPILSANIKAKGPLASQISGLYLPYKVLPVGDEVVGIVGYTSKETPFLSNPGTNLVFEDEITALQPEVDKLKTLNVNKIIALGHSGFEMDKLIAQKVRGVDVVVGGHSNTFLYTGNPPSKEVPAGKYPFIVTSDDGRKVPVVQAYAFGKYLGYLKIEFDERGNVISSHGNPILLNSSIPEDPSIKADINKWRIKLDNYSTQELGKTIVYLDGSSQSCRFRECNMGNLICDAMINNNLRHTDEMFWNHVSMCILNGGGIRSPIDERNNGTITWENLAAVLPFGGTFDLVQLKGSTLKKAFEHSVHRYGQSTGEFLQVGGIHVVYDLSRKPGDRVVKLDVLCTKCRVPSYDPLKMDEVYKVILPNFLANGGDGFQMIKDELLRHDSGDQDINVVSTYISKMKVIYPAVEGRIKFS

[2] = target: T1, human CD73 on the cell surface of …; test: cell-based or functional assay; remark: listed apart in the source
[3] = target: T1, human CD73 on the cell surface of …; test: flow cytometry on CHOK1-huCD73-3F4 cells, PE-goat anti-human-Fc
Method: All antigen-binding proteins were diluted to 30 μg/ml with 1% BSA in PBS solution (1% BSA/PBS) and then 3-fold diluted for 11 gradients. The diluted antigen-binding proteins were added to a 96-well U-shaped plate at 20 μL per well; and a negative control (with 1% BSA/PBS added only) was set up at the same time. The suspension of cells (CHOK1-huCD73-3F4, Huabo Biopharm) expressing human CD73 during the logarithmic growth phase were centrifuged (1000 rpm×5 min) to discard the culture medium; and the cells were resuspended with 1% BSA/PBS until the density of viable cells was 1×10⁶/mL, and were added, at 20 μL (2×10⁴ cells) per well, to the 96-well U-shaped plate with the […] antigen-binding protein to react for 30 min at room temperature. After reaction, the 96-well U-shaped plate was resuspended with 1% BSA/PBS, centrifuged (300 g×3 min) to discard the supernatant, and washed once in such a way. PE-goat anti-human-Fc (Jackson ImmunoResearch, #109-115098) diluted at 1:200 was added to react for 15 min in the dark at room temperature. After reaction, the 96-well U-shaped plate was resuspended with 1% BSA/PBS, centrifuged (300 g×3 min) to discard the supernatant, washed three times in such a way, and finally resuspended with 100 μL of 1% BSA/PBS for each wall; and the fluorescence intensity of a PE channel was detected with a flow cytometer (BD, #Cantoll).

[4] = target: T2, Human CD73 (as used in the hybridoma screening of Table 1) (human, UniProt P21589 27-549, limits assumed); test: Biacore affinity screen of hybridoma clones
T2 sequence (looked up): T1 sequence (looked up)

EC50 of inhibition of the enzyme activity of CD73 on cell membrane (AMP/ATP, CellTiter-Glo) [1]: 0.0417 µg/mL
B1: 900759 (Oleclumab antibody sourced from MedImmune, MEDI 9447) (antibody, human IgG1, lambda, L234A L235A, V domains shown)
VH: EVQLLESGGGLVQPGGSLRLSCAASGFTFSSYAYSWVRQAPGKGLEWVSAISGSGGRTYYADSVKGRFTISRDNSKNTLYLQMNSLRAEDTAVYYCARLGYGRVDEWGRGTLVTVSS
VL: QSVLTQPPSASGTPGQRVTISCSGSLSNIGRNPVNWYQQLPGTAPKLLIYLDNLRLSGVPDRFSGSKSGTSASLAISGLQSEDEADYYCATWDDSHPGWTFGGGTKLTVLG

EC50 of inhibition of the enzyme activity of CD73 on cell membrane (AMP/ATP, CellTiter-Glo) [2]: 11.1 µg/mL
EC50 [3]: 2.9 µg/mL
B2: 900584 (screened antigen-binding protein targeting CD73) (antibody, V domains shown)
VH: QVQVQQPGTELVKPGASVKLSCKASGYTFTGYWMHWVKQRPGQGLEWIGMIHPNSGSTYYNEKFKSKATLTVDRSSSTAYMQLSSLSSEDSAVYYCARYYGTTYEWYFDVWGTGTTVTVSS
VL: DIQMTQTTSSLSASLGDRVTISCRASQDISNYLNWYQQKPDGTVKPLIYYTSSLHSGVPSRFSGSGSGTDYSLTISDLEHEDIATYFCQQGYTLPFTFGGGTKLEIK
notes: It was detected with PE-goat anti-human-Fc

Kd [4]: 2.16 nM
B3: 124A9 murine monoclonal antigen-binding protein (hybridoma clone 124A9) (antibody, V domains shown)
VH: B2 VH with V4L, T9A, G31S, M34I, E46D, R74K, S87T, T102S, T103D
VL: DIVMTQSQKFMSTSVGDRVSITCKASQNVRTAVVWYQQNPGQSPKALIYLASNRHTGVPDRFTGSGSGTDFTLTISNVHSEDLADYFCLQHWNYPYTFGGGTKLEIK
